Experimental data published in the supplement of paper PMC10065799, “High-throughput profiling of sequence recognition by tyrosine kinases and SH2 domains using bacterial peptide display” (eLife, 2023).

test system: c-Src; assay: phosphorylation enrichment, bacterial display (enrichment ratio); higher = better substrate or ligand; peptides without Tyr show the background
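Note: 11-residue human phosphosite peptides and single-mutation variants displayed on the E. coli surface, counted by deep sequencing, each peptide's frequency after selection divided by its frequency in the unselected input library; frequency after pTyr selection over input frequency; kinase dosed for 20-30% of maximal phosphorylation in three min.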

Going from RLSVDYGKKSK [TUBA3E_Y161_S162G] to TKAEKYVNKPK [PLCG1_Y991_A995P], the phosphorylation enrichment rises from 0.396 to 0.467.

First: EVVGRYSVHNA [MLH1_Y183]
Second: CRIELYRVVES [IGFBP1_Y181]
The phosphorylation enrichment of the first is higher: 0.497 for the first, 0.437 for the second.

Compared with TTTQAYRVDER [PRKN_Y391], IKKLIYVFLVI [JAGN1_Y42_H44Y_YF] is higher in phosphorylation enrichment: 0.389 for the first, 0.424 for the second.

Compared with HKLSSYEFDFE [BTK_Y40_Y39S_YF], GCKNRYDEDKP [THAP1_Y14_K16E] is lower in phosphorylation enrichment: 1.09 for the first, 0.438 for the second.

Going from NREGVYTVFAP [TGFBI_Y537] to PVPKTYDMLKA [PKP2_Y108], the phosphorylation enrichment falls from 8.95 to 0.861.

First: AFGEVYEGQVS [ALK_Y1131]
Second: VITDYYVDMKF [MPP4_Y567]
The phosphorylation enrichment of the first is higher: 1.54 for the first, 0.88 for the second.

First: ETKKQYNSFTY [TMED3_Y85_D86N]
Second: SARSAYQEAID [SFN_Y151_M155I]
The phosphorylation enrichment of the first is lower: 0.491 for the first, 0.516 for the second.

Going from EPTPSYEVGQR [TSC2_Y1788_G1787S] to RRAKGYPIFLF [ITGB2_Y125_D128Y_YF], the phosphorylation enrichment rises from 0.428 to 0.857.

Compared with SPYAVYRFFTF [RPGRIP1_Y826], SVVMPYEPPEV [TP53_Y220_V218M] is lower in phosphorylation enrichment: 2.4 for the first, 0.482 for the second.

Compared with LNECHYGALIG [BPGM_Y92_R90C], PPVVNYEQDAR [FER_Y402_E404Q] is lower in phosphorylation enrichment: 3.61 for the first, 0.646 for the second.

Going from IHFAIYFLKFS [ARMC9_Y107_L108F_YF] to GLNKDYRMVVN [HINT1_Y94_G93D], the phosphorylation enrichment falls from 0.434 to 0.415.

Compared with NPEACYQRLKK [TK2_Y190_T188A], LDYNEYFRNLN [HPRT1_Y198_D201N] is lower in phosphorylation enrichment: 0.685 for the first, 0.657 for the second.

Compared with WTAHSYRMGST [ARHGEF7_Y785], AAFNKYDQERF [CDC73_Y293_R292K_YF] is higher in phosphorylation enrichment: 0.374 for the first, 0.414 for the second.

Compared with LLANAYIYDVQ [L1CAM_Y418_V421D], CSPLLYKVIMS [OR8D4_Y132_R133K] is lower in phosphorylation enrichment: 3.69 for the first, 0.445 for the second.

Compared with GCKNRYDKGKP [THAP1_Y14_D17G], MEVEQYIFVKC [CYBB_Y324_G322E] is higher in phosphorylation enrichment: 0.406 for the first, 0.594 for the second.

First: KTVQDYLEKFY [MMP8_Y36]
Second: CRWKRYQCSHD [GDPD5_Y30_R32C]
The phosphorylation enrichment of the first is higher: 0.674 for the first, 0.448 for the second.

With AQVDTYCRHNF [HLA-DRB1_Y107_A103Q_YF] the phosphorylation enrichment was 0.434.

target: EPHB2 (UniProt P29323); assay: as above
Sequence (P29323 whole entry, looked up): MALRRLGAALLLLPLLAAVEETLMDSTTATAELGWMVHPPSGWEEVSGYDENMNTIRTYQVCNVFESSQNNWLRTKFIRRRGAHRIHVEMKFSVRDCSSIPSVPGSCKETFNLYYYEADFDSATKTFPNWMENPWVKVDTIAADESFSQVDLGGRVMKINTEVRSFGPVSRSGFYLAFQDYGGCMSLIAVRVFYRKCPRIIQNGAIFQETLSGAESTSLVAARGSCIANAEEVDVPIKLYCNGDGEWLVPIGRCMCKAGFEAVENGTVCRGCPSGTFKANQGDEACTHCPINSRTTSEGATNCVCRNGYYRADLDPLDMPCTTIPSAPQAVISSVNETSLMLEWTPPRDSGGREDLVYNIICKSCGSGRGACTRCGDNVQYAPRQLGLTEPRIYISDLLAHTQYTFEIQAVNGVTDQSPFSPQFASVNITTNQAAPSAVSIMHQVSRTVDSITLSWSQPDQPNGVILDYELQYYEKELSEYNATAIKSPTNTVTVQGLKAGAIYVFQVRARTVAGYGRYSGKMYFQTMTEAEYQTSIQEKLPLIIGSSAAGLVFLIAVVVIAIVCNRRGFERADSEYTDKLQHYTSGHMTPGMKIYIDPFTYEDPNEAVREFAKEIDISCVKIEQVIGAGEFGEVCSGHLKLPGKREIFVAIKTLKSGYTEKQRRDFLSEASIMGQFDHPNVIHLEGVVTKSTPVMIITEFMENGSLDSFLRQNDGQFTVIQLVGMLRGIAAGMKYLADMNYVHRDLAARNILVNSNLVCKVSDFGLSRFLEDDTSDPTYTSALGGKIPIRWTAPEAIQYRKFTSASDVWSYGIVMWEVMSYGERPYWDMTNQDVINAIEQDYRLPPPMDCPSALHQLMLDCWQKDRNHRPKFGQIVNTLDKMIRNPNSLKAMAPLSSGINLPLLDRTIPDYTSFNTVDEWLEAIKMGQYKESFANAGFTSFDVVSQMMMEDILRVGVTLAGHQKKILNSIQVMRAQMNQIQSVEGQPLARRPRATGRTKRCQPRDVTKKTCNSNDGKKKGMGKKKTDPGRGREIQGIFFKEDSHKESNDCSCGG

Going from RLSVDYGKKSK [TUBA3E_Y161_S162G] to TKAEKYVNKPK [PLCG1_Y991_A995P], the phosphorylation enrichment falls from 0.671 to 0.376.

Going from EVVGRYSVHNA [MLH1_Y183] to CRIELYRVVES [IGFBP1_Y181], the phosphorylation enrichment rises from 0.451 to 0.68.

Compared with TTTQAYRVDER [PRKN_Y391], IKKLIYVFLVI [JAGN1_Y42_H44Y_YF] is higher in phosphorylation enrichment: 0.439 for the first, 0.547 for the second.

Going from HKLSSYEFDFE [BTK_Y40_Y39S_YF] to GCKNRYDEDKP [THAP1_Y14_K16E], the phosphorylation enrichment falls from 0.75 to 0.497.

Compared with NREGVYTVFAP [TGFBI_Y537], PVPKTYDMLKA [PKP2_Y108] is lower in phosphorylation enrichment: 2.04 for the first, 0.541 for the second.

Compared with AFGEVYEGQVS [ALK_Y1131], VITDYYVDMKF [MPP4_Y567] is higher in phosphorylation enrichment: 0.64 for the first, 1.98 for the second.

First: ETKKQYNSFTY [TMED3_Y85_D86N]
Second: SARSAYQEAID [SFN_Y151_M155I]
The phosphorylation enrichment of the first is higher: 0.434 for the first, 0.405 for the second.

Compared with EPTPSYEVGQR [TSC2_Y1788_G1787S], RRAKGYPIFLF [ITGB2_Y125_D128Y_YF] is higher in phosphorylation enrichment: 0.426 for the first, 0.739 for the second.

First: SPYAVYRFFTF [RPGRIP1_Y826]
Second: SVVMPYEPPEV [TP53_Y220_V218M]
The phosphorylation enrichment of the first is lower: 0.555 for the first, 0.595 for the second.

Compared with LNECHYGALIG [BPGM_Y92_R90C], PPVVNYEQDAR [FER_Y402_E404Q] is lower in phosphorylation enrichment: 0.878 for the first, 0.534 for the second.

Compared with IHFAIYFLKFS [ARMC9_Y107_L108F_YF], GLNKDYRMVVN [HINT1_Y94_G93D] is lower in phosphorylation enrichment: 0.576 for the first, 0.44 for the second.

First: NPEACYQRLKK [TK2_Y190_T188A]
Second: LDYNEYFRNLN [HPRT1_Y198_D201N]
The phosphorylation enrichment of the first is lower: 0.507 for the first, 0.751 for the second.

First: WTAHSYRMGST [ARHGEF7_Y785]
Second: AAFNKYDQERF [CDC73_Y293_R292K_YF]
The phosphorylation enrichment of the first is lower: 0.407 for the first, 0.483 for the second.

Going from LLANAYIYDVQ [L1CAM_Y418_V421D] to CSPLLYKVIMS [OR8D4_Y132_R133K], the phosphorylation enrichment falls from 1.56 to 0.648.

Going from GCKNRYDKGKP [THAP1_Y14_D17G] to MEVEQYIFVKC [CYBB_Y324_G322E], the phosphorylation enrichment rises from 0.469 to 0.868.

First: KTVQDYLEKFY [MMP8_Y36]
Second: CRWKRYQCSHD [GDPD5_Y30_R32C]
The phosphorylation enrichment of the first is higher: 0.711 for the first, 0.493 for the second.

AQVDTYCRHNF [HLA-DRB1_Y107_A103Q_YF] was tested, and the phosphorylation enrichment was 0.479.

test system: c-Abl (mouse); assay: as above

Compared with RLSVDYGKKSK [TUBA3E_Y161_S162G], TKAEKYVNKPK [PLCG1_Y991_A995P] is higher in phosphorylation enrichment: 0.553 for the first, 0.942 for the second.

First: EVVGRYSVHNA [MLH1_Y183]
Second: CRIELYRVVES [IGFBP1_Y181]
The phosphorylation enrichment of the first is lower: 0.589 for the first, 0.759 for the second.

Going from TTTQAYRVDER [PRKN_Y391] to IKKLIYVFLVI [JAGN1_Y42_H44Y_YF], the phosphorylation enrichment falls from 0.714 to 0.701.

Going from HKLSSYEFDFE [BTK_Y40_Y39S_YF] to GCKNRYDEDKP [THAP1_Y14_K16E], the phosphorylation enrichment falls from 1.43 to 0.512.

First: NREGVYTVFAP [TGFBI_Y537]
Second: PVPKTYDMLKA [PKP2_Y108]
The phosphorylation enrichment of the first is higher: 1.57 for the first, 1.01 for the second.

Going from AFGEVYEGQVS [ALK_Y1131] to VITDYYVDMKF [MPP4_Y567], the phosphorylation enrichment rises from 0.764 to 1.18.

First: ETKKQYNSFTY [TMED3_Y85_D86N]
Second: SARSAYQEAID [SFN_Y151_M155I]
The phosphorylation enrichment of the first is lower: 0.435 for the first, 0.83 for the second.

Compared with EPTPSYEVGQR [TSC2_Y1788_G1787S], RRAKGYPIFLF [ITGB2_Y125_D128Y_YF] is higher in phosphorylation enrichment: 0.627 for the first, 0.854 for the second.

Going from SPYAVYRFFTF [RPGRIP1_Y826] to SVVMPYEPPEV [TP53_Y220_V218M], the phosphorylation enrichment falls from 1.67 to 0.66.

Going from LNECHYGALIG [BPGM_Y92_R90C] to PPVVNYEQDAR [FER_Y402_E404Q], the phosphorylation enrichment falls from 1.4 to 0.767.

Compared with IHFAIYFLKFS [ARMC9_Y107_L108F_YF], GLNKDYRMVVN [HINT1_Y94_G93D] is lower in phosphorylation enrichment: 0.636 for the first, 0.447 for the second.

Going from NPEACYQRLKK [TK2_Y190_T188A] to LDYNEYFRNLN [HPRT1_Y198_D201N], the phosphorylation enrichment rises from 0.558 to 0.849.

First: WTAHSYRMGST [ARHGEF7_Y785]
Second: AAFNKYDQERF [CDC73_Y293_R292K_YF]
The phosphorylation enrichment of the first is lower: 0.437 for the first, 0.494 for the second.

Going from LLANAYIYDVQ [L1CAM_Y418_V421D] to CSPLLYKVIMS [OR8D4_Y132_R133K], the phosphorylation enrichment rises from 0.538 to 0.955.

Compared with GCKNRYDKGKP [THAP1_Y14_D17G], MEVEQYIFVKC [CYBB_Y324_G322E] is higher in phosphorylation enrichment: 0.798 for the first, 1.04 for the second.

Going from KTVQDYLEKFY [MMP8_Y36] to CRWKRYQCSHD [GDPD5_Y30_R32C], the phosphorylation enrichment falls from 1.23 to 0.41.

AQVDTYCRHNF [HLA-DRB1_Y107_A103Q_YF] gave a phosphorylation enrichment of 0.59.

target: EPHB1 (UniProt P54762); assay: as above
Sequence (P54762 whole entry, looked up): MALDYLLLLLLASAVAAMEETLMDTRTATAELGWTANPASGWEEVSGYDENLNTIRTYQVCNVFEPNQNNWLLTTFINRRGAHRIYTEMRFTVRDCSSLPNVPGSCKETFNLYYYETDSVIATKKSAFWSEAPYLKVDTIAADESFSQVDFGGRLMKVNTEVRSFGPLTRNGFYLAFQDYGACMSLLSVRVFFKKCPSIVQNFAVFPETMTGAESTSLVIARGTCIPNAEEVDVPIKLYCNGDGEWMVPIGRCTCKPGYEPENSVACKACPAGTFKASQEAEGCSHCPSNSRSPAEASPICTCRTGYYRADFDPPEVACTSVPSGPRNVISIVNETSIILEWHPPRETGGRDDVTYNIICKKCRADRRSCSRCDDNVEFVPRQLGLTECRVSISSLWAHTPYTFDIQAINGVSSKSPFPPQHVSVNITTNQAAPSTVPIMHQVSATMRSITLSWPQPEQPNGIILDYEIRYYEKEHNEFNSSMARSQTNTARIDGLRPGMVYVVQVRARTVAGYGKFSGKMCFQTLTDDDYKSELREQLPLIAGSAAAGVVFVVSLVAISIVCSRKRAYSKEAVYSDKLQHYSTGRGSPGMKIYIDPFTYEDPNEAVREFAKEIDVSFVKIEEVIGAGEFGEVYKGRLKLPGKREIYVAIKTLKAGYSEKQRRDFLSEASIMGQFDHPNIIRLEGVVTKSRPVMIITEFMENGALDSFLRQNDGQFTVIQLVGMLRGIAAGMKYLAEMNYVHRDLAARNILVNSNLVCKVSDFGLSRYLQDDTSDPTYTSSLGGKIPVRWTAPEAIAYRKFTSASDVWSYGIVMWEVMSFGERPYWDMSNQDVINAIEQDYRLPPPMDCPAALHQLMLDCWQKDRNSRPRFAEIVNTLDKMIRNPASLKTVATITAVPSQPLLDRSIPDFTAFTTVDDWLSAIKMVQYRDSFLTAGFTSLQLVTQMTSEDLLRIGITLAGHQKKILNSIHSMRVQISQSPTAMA

Compared with RLSVDYGKKSK [TUBA3E_Y161_S162G], TKAEKYVNKPK [PLCG1_Y991_A995P] is lower in phosphorylation enrichment: 0.471 for the first, 0.336 for the second.

First: EVVGRYSVHNA [MLH1_Y183]
Second: CRIELYRVVES [IGFBP1_Y181]
The phosphorylation enrichment of the first is lower: 0.437 for the first, 0.989 for the second.

Going from TTTQAYRVDER [PRKN_Y391] to IKKLIYVFLVI [JAGN1_Y42_H44Y_YF], the phosphorylation enrichment rises from 0.473 to 0.556.

First: HKLSSYEFDFE [BTK_Y40_Y39S_YF]
Second: GCKNRYDEDKP [THAP1_Y14_K16E]
The phosphorylation enrichment of the first is higher: 0.902 for the first, 0.51 for the second.

Going from NREGVYTVFAP [TGFBI_Y537] to PVPKTYDMLKA [PKP2_Y108], the phosphorylation enrichment falls from 2.35 to 1.2.

Going from AFGEVYEGQVS [ALK_Y1131] to VITDYYVDMKF [MPP4_Y567], the phosphorylation enrichment rises from 0.539 to 3.65.

Compared with ETKKQYNSFTY [TMED3_Y85_D86N], SARSAYQEAID [SFN_Y151_M155I] is higher in phosphorylation enrichment: 0.436 for the first, 0.461 for the second.

Compared with EPTPSYEVGQR [TSC2_Y1788_G1787S], RRAKGYPIFLF [ITGB2_Y125_D128Y_YF] is lower in phosphorylation enrichment: 0.443 for the first, 0.351 for the second.

First: SPYAVYRFFTF [RPGRIP1_Y826]
Second: SVVMPYEPPEV [TP53_Y220_V218M]
The phosphorylation enrichment of the first is higher: 0.714 for the first, 0.559 for the second.

Compared with LNECHYGALIG [BPGM_Y92_R90C], PPVVNYEQDAR [FER_Y402_E404Q] is higher in phosphorylation enrichment: 0.682 for the first, 1.01 for the second.

Compared with IHFAIYFLKFS [ARMC9_Y107_L108F_YF], GLNKDYRMVVN [HINT1_Y94_G93D] is lower in phosphorylation enrichment: 0.473 for the first, 0.426 for the second.

Compared with NPEACYQRLKK [TK2_Y190_T188A], LDYNEYFRNLN [HPRT1_Y198_D201N] is higher in phosphorylation enrichment: 0.417 for the first, 0.559 for the second.

First: WTAHSYRMGST [ARHGEF7_Y785]
Second: AAFNKYDQERF [CDC73_Y293_R292K_YF]
The phosphorylation enrichment of the first is higher: 0.46 for the first, 0.401 for the second.

First: LLANAYIYDVQ [L1CAM_Y418_V421D]
Second: CSPLLYKVIMS [OR8D4_Y132_R133K]
The phosphorylation enrichment of the first is higher: 1.46 for the first, 0.693 for the second.

Compared with GCKNRYDKGKP [THAP1_Y14_D17G], MEVEQYIFVKC [CYBB_Y324_G322E] is higher in phosphorylation enrichment: 0.481 for the first, 1.03 for the second.

Compared with KTVQDYLEKFY [MMP8_Y36], CRWKRYQCSHD [GDPD5_Y30_R32C] is lower in phosphorylation enrichment: 0.673 for the first, 0.458 for the second.

Sequence AQVDTYCRHNF [HLA-DRB1_Y107_A103Q_YF] has a phosphorylation enrichment of 0.369.
